A short description of the assay: Fluorescence emission spectra without and with saturating ligand (wavelength shift, ΔIstd, ΔRmax). The arrangement: key to ΔIstd: intensity change at λstd normalized to average intensity; key to ΔRmax: ratio change of two emission band areas, unbound vs saturated. The settings on record: unbound vs ligand-saturated; for ΔIstd: standard intensity change; for ΔRmax: standard ratiometric change. Here is the method:
Fluorimetry. All measurements were conducted with an SLM Aminco-Bowman series 2 fluorimeter, with sample stirring at 25° C. Fluorescence emission spectra were acquired with excitation and emission slit widths of 4 and 8 nm, respectively. Photomultiplier tube potential was maintained between 400 and 800 volts. Protein concentrations were in the range of 50 to 1000 nM. Fluorophore-specific excitation was at the following approximate wavelengths: tryptophan, 290 nm; acrylodan, 390 nm; fluorescein, 485 nm; pyrene, 340 nm; NBD and NBDE, 490 nm; JPW4039, 485 nm; JPW4042, 470 nm; JPW4045, 470 nm.
Assessment of fluorescent biosensor function. Fluorescence emission spectra of bPBP-fluorophore conjugates were recorded in the absence and presence of saturating ligand concentrations. Spectral changes were characterized by four parameters: wavelength shift (the difference between the wavelengths of emission maximum in the unbound and ligand-saturated states), direction of intensity change (increase or decrease in intensity at the wavelengths of maximum emission in the two states), standard intensity change (ΔIstd), and standard ratiometric change (ΔR). ΔIstd is defined as the normalized intensity change relative to the average intensity, determined at the wavelength mid-point between the two emission maxima:
[formula] where λstd=(λmax, unbound+λmax, saturated)/2 and I1, I2 are the fluorescence intensities at λstd of each spectrum respectively (FIG. 4A). ΔR is defined in terms of two emission bands, A1 ([λ1, λ2]) and A2 ([λ3, λ4]) (FIG. 4B):
[formula] where ^∘A1, […] the areas in the absence of ligand, and ^∞A1, ^∞A2 the areas in the presence of saturating ligand. A computer program was used to enumerate ΔR for all possible pairs of wavelength bands in the two spectra, to identify the optimal sensing condition, defined as the maximum value of ΔR. Adjustable parameters of the algorithm, and their values used for ΔRmax quantities reported here, are: step size (2 nm), step width (10 nm), minimum integration area limit (fraction of total: 0.1), and maximum integration area limit (fraction of total: 1).

B1: phosphate BP A225C JPW4039 (conjugate, UniProt P0AG82 26-346, looked up, variant A225C)
Phosphate-binding protein PstS: EASLTGAGATFPAPVYAKWADTYQKETGNKVNYQGIGSSGGVKQIIANTVDFGASDAPLSDEKLAQEGLFQFPTVIGGVVLAVNIPGLKSGELVLDGKTLGDIYLGKIKKWDDEAIAKLNPGLKLPSQNIAVVRRADGSGTSFVFTSYLAKVNEEWKNNVGTGSTVKWPIGLGGKGNDGIAAFVQRLPGAIGYVEYAYAKQNNLAYTKLISADGKPVSPTEENFCNAAKGADWSKTFAQDLTNQKGEDAWPITSTTFILIHKDQKKPEQGTEVLKFFDWAYKTGAKQANDLDYASLPDSVVEQVRAAWKTNIKDSSGKPLY
modifications: JPW4039 label
Take B1: the ΔIstd came to 0.36 and the ΔRmax came to 2.86.

B2: phosphate BP A225C NBD (conjugate, UniProt P0AG82 26-346, looked up, variant A225C)
Phosphate-binding protein PstS: EASLTGAGATFPAPVYAKWADTYQKETGNKVNYQGIGSSGGVKQIIANTVDFGASDAPLSDEKLAQEGLFQFPTVIGGVVLAVNIPGLKSGELVLDGKTLGDIYLGKIKKWDDEAIAKLNPGLKLPSQNIAVVRRADGSGTSFVFTSYLAKVNEEWKNNVGTGSTVKWPIGLGGKGNDGIAAFVQRLPGAIGYVEYAYAKQNNLAYTKLISADGKPVSPTEENFCNAAKGADWSKTFAQDLTNQKGEDAWPITSTTFILIHKDQKKPEQGTEVLKFFDWAYKTGAKQANDLDYASLPDSVVEQVRAAWKTNIKDSSGKPLY
modifications: NBD conjugate
Take B2: the ΔIstd is on record as 0.81 and the ΔRmax was found to be 1.21.

B3: phosphate BP A225C JPW4045 (conjugate, UniProt P0AG82 26-346, looked up, variant A225C)
Phosphate-binding protein PstS: EASLTGAGATFPAPVYAKWADTYQKETGNKVNYQGIGSSGGVKQIIANTVDFGASDAPLSDEKLAQEGLFQFPTVIGGVVLAVNIPGLKSGELVLDGKTLGDIYLGKIKKWDDEAIAKLNPGLKLPSQNIAVVRRADGSGTSFVFTSYLAKVNEEWKNNVGTGSTVKWPIGLGGKGNDGIAAFVQRLPGAIGYVEYAYAKQNNLAYTKLISADGKPVSPTEENFCNAAKGADWSKTFAQDLTNQKGEDAWPITSTTFILIHKDQKKPEQGTEVLKFFDWAYKTGAKQANDLDYASLPDSVVEQVRAAWKTNIKDSSGKPLY
modifications: JPW4045 label
For B3, the ΔIstd amounted to 0.02 and the ΔRmax came to 0.82.

B4: phosphate BP A225C JPW4042 (conjugate, UniProt P0AG82 26-346, looked up, variant A225C)
Phosphate-binding protein PstS: EASLTGAGATFPAPVYAKWADTYQKETGNKVNYQGIGSSGGVKQIIANTVDFGASDAPLSDEKLAQEGLFQFPTVIGGVVLAVNIPGLKSGELVLDGKTLGDIYLGKIKKWDDEAIAKLNPGLKLPSQNIAVVRRADGSGTSFVFTSYLAKVNEEWKNNVGTGSTVKWPIGLGGKGNDGIAAFVQRLPGAIGYVEYAYAKQNNLAYTKLISADGKPVSPTEENFCNAAKGADWSKTFAQDLTNQKGEDAWPITSTTFILIHKDQKKPEQGTEVLKFFDWAYKTGAKQANDLDYASLPDSVVEQVRAAWKTNIKDSSGKPLY
modifications: JPW4042 dye conjugate
B4: the ΔIstd is recorded as 0.30 and the ΔRmax is on record as 1.32.

B5: phosphate BP A225C Fluorescein (conjugate, UniProt P0AG82 26-346, looked up, variant A225C)
Phosphate-binding protein PstS: EASLTGAGATFPAPVYAKWADTYQKETGNKVNYQGIGSSGGVKQIIANTVDFGASDAPLSDEKLAQEGLFQFPTVIGGVVLAVNIPGLKSGELVLDGKTLGDIYLGKIKKWDDEAIAKLNPGLKLPSQNIAVVRRADGSGTSFVFTSYLAKVNEEWKNNVGTGSTVKWPIGLGGKGNDGIAAFVQRLPGAIGYVEYAYAKQNNLAYTKLISADGKPVSPTEENFCNAAKGADWSKTFAQDLTNQKGEDAWPITSTTFILIHKDQKKPEQGTEVLKFFDWAYKTGAKQANDLDYASLPDSVVEQVRAAWKTNIKDSSGKPLY
modifications: fluorescein label
With B5, the ΔIstd worked out at 0.01 and the ΔRmax came out at 0.97.

B6: phosphate BP N226C JPW4042 (conjugate, UniProt P0AG82 26-346, looked up, variant N226C)
Phosphate-binding protein PstS: EASLTGAGATFPAPVYAKWADTYQKETGNKVNYQGIGSSGGVKQIIANTVDFGASDAPLSDEKLAQEGLFQFPTVIGGVVLAVNIPGLKSGELVLDGKTLGDIYLGKIKKWDDEAIAKLNPGLKLPSQNIAVVRRADGSGTSFVFTSYLAKVNEEWKNNVGTGSTVKWPIGLGGKGNDGIAAFVQRLPGAIGYVEYAYAKQNNLAYTKLISADGKPVSPTEENFACAAKGADWSKTFAQDLTNQKGEDAWPITSTTFILIHKDQKKPEQGTEVLKFFDWAYKTGAKQANDLDYASLPDSVVEQVRAAWKTNIKDSSGKPLY
modifications: JPW4042 dye conjugate
Regarding B6, the ΔIstd stood at 0.29 and the ΔRmax was 2.05.

B7: phosphate BP A225C Acrylodan (conjugate, UniProt P0AG82 26-346, looked up, variant A225C)
Phosphate-binding protein PstS: EASLTGAGATFPAPVYAKWADTYQKETGNKVNYQGIGSSGGVKQIIANTVDFGASDAPLSDEKLAQEGLFQFPTVIGGVVLAVNIPGLKSGELVLDGKTLGDIYLGKIKKWDDEAIAKLNPGLKLPSQNIAVVRRADGSGTSFVFTSYLAKVNEEWKNNVGTGSTVKWPIGLGGKGNDGIAAFVQRLPGAIGYVEYAYAKQNNLAYTKLISADGKPVSPTEENFCNAAKGADWSKTFAQDLTNQKGEDAWPITSTTFILIHKDQKKPEQGTEVLKFFDWAYKTGAKQANDLDYASLPDSVVEQVRAAWKTNIKDSSGKPLY
modifications: acrylodan conjugate
With B7, the ΔIstd is given as 0.08 and the ΔRmax turned out to be 1.95.

B8: phosphate BP N226C JPW4039 (conjugate, UniProt P0AG82 26-346, looked up, variant N226C)
Phosphate-binding protein PstS: EASLTGAGATFPAPVYAKWADTYQKETGNKVNYQGIGSSGGVKQIIANTVDFGASDAPLSDEKLAQEGLFQFPTVIGGVVLAVNIPGLKSGELVLDGKTLGDIYLGKIKKWDDEAIAKLNPGLKLPSQNIAVVRRADGSGTSFVFTSYLAKVNEEWKNNVGTGSTVKWPIGLGGKGNDGIAAFVQRLPGAIGYVEYAYAKQNNLAYTKLISADGKPVSPTEENFACAAKGADWSKTFAQDLTNQKGEDAWPITSTTFILIHKDQKKPEQGTEVLKFFDWAYKTGAKQANDLDYASLPDSVVEQVRAAWKTNIKDSSGKPLY
modifications: JPW4039 dye conjugate
Turning to B8, the ΔIstd is given as 0.26 and the ΔRmax came out at 2.94.

B9: phosphate BP N223C Fluorescein (conjugate, UniProt P0AG82 26-346, looked up, variant N223C)
Phosphate-binding protein PstS: EASLTGAGATFPAPVYAKWADTYQKETGNKVNYQGIGSSGGVKQIIANTVDFGASDAPLSDEKLAQEGLFQFPTVIGGVVLAVNIPGLKSGELVLDGKTLGDIYLGKIKKWDDEAIAKLNPGLKLPSQNIAVVRRADGSGTSFVFTSYLAKVNEEWKNNVGTGSTVKWPIGLGGKGNDGIAAFVQRLPGAIGYVEYAYAKQNNLAYTKLISADGKPVSPTEECFANAAKGADWSKTFAQDLTNQKGEDAWPITSTTFILIHKDQKKPEQGTEVLKFFDWAYKTGAKQANDLDYASLPDSVVEQVRAAWKTNIKDSSGKPLY
modifications: fluorescein conjugate
With B9, the ΔIstd is listed as 0.06 and the ΔRmax came out at 0.01.

B10: phosphate BP N226C JPW4045 (conjugate, UniProt P0AG82 26-346, looked up, variant N226C)
Phosphate-binding protein PstS: EASLTGAGATFPAPVYAKWADTYQKETGNKVNYQGIGSSGGVKQIIANTVDFGASDAPLSDEKLAQEGLFQFPTVIGGVVLAVNIPGLKSGELVLDGKTLGDIYLGKIKKWDDEAIAKLNPGLKLPSQNIAVVRRADGSGTSFVFTSYLAKVNEEWKNNVGTGSTVKWPIGLGGKGNDGIAAFVQRLPGAIGYVEYAYAKQNNLAYTKLISADGKPVSPTEENFACAAKGADWSKTFAQDLTNQKGEDAWPITSTTFILIHKDQKKPEQGTEVLKFFDWAYKTGAKQANDLDYASLPDSVVEQVRAAWKTNIKDSSGKPLY
modifications: JPW4045 dye conjugate
For B10, the ΔIstd is given as 0.53 and the ΔRmax is recorded as 3.83.

Values taken from US9625458B2, “Biosensor” (priority 2002, dated 2017).
